Earlier results as cited in publication PMC12152951.

Tests used:
[1] = target: TSLPR-IL7Rα fusion protein (Homo sapiens) (UniProt Q9HC73)
TSLPR (Homo sapiens) = TSLPR (Homo sapiens) (UniProt Q9HC73)
IL7Rα (Homo sapiens) = IL7Rα (Homo sapiens) (UniProt P16871)
UniProt P16871, sequence (P16871 21-239): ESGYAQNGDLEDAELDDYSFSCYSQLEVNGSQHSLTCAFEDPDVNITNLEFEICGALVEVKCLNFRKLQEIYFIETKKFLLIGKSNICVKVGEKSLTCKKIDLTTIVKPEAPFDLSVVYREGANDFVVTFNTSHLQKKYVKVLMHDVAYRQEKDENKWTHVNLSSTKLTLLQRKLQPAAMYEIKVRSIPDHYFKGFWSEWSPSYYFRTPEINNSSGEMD

Row | Kd [1] [nM] | Kd (TSLPR (Homo sapiens)) [nM] | Kd (IL7Rα (Homo sapiens)) [nM] | Substance
1 | 0.09 | 32 |  | TSLP (from UniProt Q969D9)
2 |  |  | 29 | TSLP-TSLPR complex (from UniProt Q969D9)
